This note sets out measurements from article PMC6475481 (Journal of the American Chemical Society, 2019).

The data set “native MS” deals with the molecule itself. Put plainly: native MS.
The next data set concerns the target T1, AqpZ, P60844.
T1 chain: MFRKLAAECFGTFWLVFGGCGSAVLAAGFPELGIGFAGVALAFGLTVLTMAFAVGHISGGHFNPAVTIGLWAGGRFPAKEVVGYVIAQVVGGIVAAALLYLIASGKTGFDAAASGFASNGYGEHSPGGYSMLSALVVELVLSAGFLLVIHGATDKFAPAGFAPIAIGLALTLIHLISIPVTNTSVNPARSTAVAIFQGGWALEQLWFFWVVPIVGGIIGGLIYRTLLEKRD
Put plainly: native MS. Conditions: remark: other sources report otherwise.

The stoichiometry N is a count of units in the complex or per binding partner.

B1: AmtB (natural protein)
chain: VADKADNAFMMICTALVLFMTIPGIALFYGGLIRGKNVLSMLTQVTVTFALVCILWVVYGYSLAFGEGNNFFGNINWLMLKNIELTAVMGSIYQYIHVAFQGSFACITVGLIVGALAERIRFSAVLIFVVVWLTLSYIPIAHMVWGGGLLASHGALDFAGGTVVHINAAIAGLVGAYLIGKRVGFGKEAFKPHNLPMVFTGTAILYIGWFGFNAGSAGTANEIAALAFVNTVVATAAAILGWIFGEWALRGKPSLLGACSGAIAGLVGVTPACGYIGVGGALIIGVVAGLAGLWGVTMLKRLLRVDDPCDVFGVHGVCGIVGCIMTGIFAASSLGGVGFAEGVTMGHQLLVQLESIAITIVWSGVVAFIGYKLADLTVGLRVPEEQEREGLDVNSHGENAYNA
With B1, the “stoichiometry N” value in “native MS” stood at 3.

B2: AqpZ, P60844 1-231 (natural protein)
chain: T1 chain
In the data set with AqpZ, P60844, B2 came in with a stoichiometry N of 4.
